Laboratory results published in the supplement of paper PMC10567573.

B1: KCNAB2 (parent)
chain: YVDVVFANRPDPNTPMEETVRAMT

Variants of: B1
Test: protein stability index of a GFP-peptide fusion (GPS, HEK-293T) (PSI 1-6); higher = more stable
Settings: c terminus: a fixed tail appended
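Further: lentivirally expressed fusions sorted by FACS into six bins by GFP to DsRed ratio, PSI derived from sequencing read proportions per bin multiplied by bin number.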

Protein stability index: each site, then its substitutions
E17: V 2.06, A 1.86, R 2.29, S 1.2, Q 2.14, K 2.62, I 1.58, T 2.84, D 2.12, H 2.85, C 1.62, W 3.15, N 2.76, P 2.17, M 2.65, L 1.64, G 2.72, Y 2.5
D3: Q 1.91, S 2.99, N 2.01, L 2.51, R 2.28, Y 2.34, P 1.2, V 2.48, T 1.82, W 2.8, M 3.61
V5: P 2.01, A 2.29, Y 2.03, M 3.01, N 2.06, D 2.13, T 2.12, C 1.9, S 1.93, E 2.5, I 2.09, G 2.49, L 2.2, K 1.82, W 1.59, F 3.07, H 2.09, Q 1.65, R 2.45
P12: C 2.08, D 1.65, I 1.83, H 1.37, K 2.16, A 2.27, F 2.02, E 1.65, T 1.56, N 1.28, M 2.03, V 2.72, W 2.04, G 2.31, R 1.46, Y 2.72, Q 2.43, L 2.51, S 1.66
N8: E 2.14, W 2.85, D 1.79, H 1.76, V 1.83, A 2.69, F 2.85, G 1.83, Y 2.88, C 2.94, P 1.82, Q 1.9, K 1.7, T 2.68, L 2.61, I 2.35, R 2.3, S 2.33, M 3.09
F6: V 1.94, Y 2.13, N 3.01, D 4.17, G 3.16, A 2.79, I 1.99, W 3.77, M 2.3, L 2.15, R 2.05, K 2.66, H 2.42, P 2.09, C 2.18, Q 3.1, E 3.63, T 3.11, S 2.79
P15: N 1.97, V 1.87, T 1.94, A 2.34, W 1.78, D 1.49, I 1.9, R 2.52, C 2.67, G 1.91, H 1.35, E 1.73, Y 2.21, K 2.72, F 2.47, L 2.44, S 2.69, Q 2.1, M 2.28
A7: R 1.97, T 2.12, S 2.13, P 2.14, W 2.45, Y 2.64, H 2.09, G 2.2, M 2.16, I 1.88, K 1.64, L 1.98, D 2.02, N 1.97, Q 2.15, F 3.08, V 3.18, C 1.74, E 2.19
P10: L 2.7, T 2.17, E 2.13, H 2.12, Y 1.69, R 2.13, N 2.06, K 2.27, D 2.47, F 2.8, W 3.14, G 2.65, I 2.2, Q 1.73, S 1.38, V 1.82, C 2.43, A 1.84, M 2.62
T19: E 1.71, L 1.89, A 1.86, W 1.85, C 1.46, G 1.9, N 2, D 2.07, K 2.41, S 1.93, M 1.79, H 2.1, F 1.66, V 2.01, R 1.66, Q 1.9, I 1.85, P 1.61, Y 1.62
R21: C 1.5, A 1.84
R9: L 2.27, Y 1.47, P 2.84, Q 1.98, V 2.96, K 1.69, I 2.07, A 1.78, S 2.76, M 2.67, H 1.66, C 1.6, T 1.7, G 2.17, E 2.15, D 2.71, N 2.22, W 2.72, F 2.02
T14: P 2.51, H 2.77, L 2.37, M 2.65, K 2.2, G 2.04, A 1.84, C 1.99, Q 2.12, N 3.02, V 1.56, I 3.12, D 1.69, W 1.54, F 2.32, Y 2.4, S 1.93, E 1.7, R 2.23
V4: H 1.39, S 1.67, G 3.05, T 2.12, F 2.3, P 1.87, Q 1.71, C 1.51, L 2.66, N 1.64, R 2.52, K 2.31, A 1.98, E 2.07, M 2.87, Y 1.85, D 2.26, I 1.83, W 2.33
M16: G 1.95, C 1.82, T 1.33, I 1.64, S 2.42, L 1.86, D 1.77, A 1.8, K 1.8, Q 2.27, P 1.91, N 2.2, H 1.93, R 2.54, W 2.2, F 1.77, V 1.65, E 2.02, Y 2.18
E18: K 2.75, A 2.67, R 2.1, I 2.98, C 2.02, S 1.99, F 2.1, N 1.83, Q 2.09, H 2.97, T 1.64, V 2.43, W 1.85, P 2.27, D 2.04, G 1.75, L 2.56, M 3.06, Y 2.64
V20: E 1.76, D 1.76, N 1.92, W 2.74, F 1.64, S 2.06, Y 1.8, G 2.07, L 2.58, C 1.99, H 1.81, R 1.82, K 1.59, A 1.82, T 1.81, P 1.86, M 1.71, I 1.87, Q 1.82
D11: W 1.94, T 2.76, C 1.77, L 1.89, N 1.67, R 1.47, Y 2.42, M 2.04, G 2.19, P 1.67, F 2.46, E 1.6, Q 2.5, S 1.39, V 2.53, A 2.79, K 2.05, H 2.28, I 2.2
N13: R 1.98, T 1.3, Q 2.11, G 2.14, M 1.98, E 2.5, K 2.18, H 2.15, S 2.34, D 2.29, A 2, I 2.76, L 1.96, F 2.09, W 2.88, Y 2.31, V 2.44, C 1.89
